Measured values: the supplement of paper PMC7877785
± gives the uncertainty stated by the source.

Test: self-splicing fitness, log relative to wild type (ln ratio); higher = more splicing; Tetrahymena group I intron in knt gene, E. coli kanamycin selection, DiMSum; sequences stand for … in CUCUCU…GGAGGGAAAAGUUAUCAGGCAUGCACCUGGUAGCUAGUCUUUAAACCAAUAGAUUGCAUCGGUUUAAAAGGCAAGACCGUCAAAUUGCGGGAAAGGGGUCAACAGCCGUUCAGUACCAAGUCUCAGGGGAAACUUUGAGAUGGCCUUGCAAAGGGUAUGGUAAUAAGCUGACGGACAUGGUCCUAACCACGCAGCCAAGUCCUAAGUCAACAGAUCUUCUGUUGAUAUGGAUGCAGUUCACAGACUAAAUGUCGGUCGGGGAAGAUGUAUUCUUCUCAUAAGAUAUAGUCGGACCUCUCCUUAAUGGGAGCUAGCGGAUGAAGUGAUGCAACACUGGAGCCGCUGGGAACUAAUUUGUAUGCGAAAGUAUAUUGAUUAGUUUUGGAGUACUCGUGGUCG
Procedure, shortened: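 Pooled colonies went to amplicon sequencing on an Illumina HiSeq 2500 after six replicate transformations. The plates were LB agar with 100 μg/mL carbenicillin, 50 μM IPTG and 0.2% rhamnose, with or without 25 μg/mL kanamycin, incubated overnight at 37°C or 30°C. The E. coli BL21(DE3) library had all eight P1ex-region intron nucleotides randomised, the intron placed in the knt kanamycin-resistance gene on pET-22b(+). DiMSum fitness is the error-weighted combination of replicate fold changes, kanamycin against none, normalised to wild type.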

Sequence | self-splicing fitness (ln) (30 °C) | self-splicing fitness (ln) (37 °C)
UCGUAGCAAUAUUACGAGGC | -0.464 ± 0.44 | –
UCGUAGCAAUAUUACGAGUC | -3.23 ± 0.17 | -2.47 ± 0.17
UCGUAGCAAUAUUACGAUCC | -2.46 ± 0.35 | –
UCGUAGCAAUAUUACGCGGA | -2.54 ± 0.17 | -1.4 ± 0.12
UCGUAGCAAUAUUACGCUCC | -2.47 ± 0.25 | –
UCGUAGCAAUAUUACGCUGU | – | -1.67 ± 0.28
UCGUAGCAAUAUUACGGAAG | -2.55 ± 0.29 | -1.94 ± 0.28
UCGUAGCAAUAUUACGGGAC | – | -2.5 ± 0.44
UCGUAGCAAUAUUACGGGAU | -4.41 ± 0.46 | -1.99 ± 0.31
UCGUAGCAAUAUUACGGUCG | -1.69 ± 0.12 | 0.265 ± 0.13
UCGUAGCAAUAUUACGGUCU | -2.83 ± 0.18 | -1.67 ± 0.16
UCGUAGCAAUAUUACGUAAA | -2.09 ± 0.2 | -0.594 ± 0.17
UCGUAGCAAUAUUACGUCUG | -0.251 ± 0.091 | -0.589 ± 0.12
UCGUAGCAAUAUUACGUGCC | -3.73 ± 0.33 | -1.13 ± 0.25
UCGUAGCAAUAUUACGUUCG | -1.45 ± 0.071 | -0.735 ± 0.086
UCGUAGCAAUAUUACGUUCU | -1.6 ± 0.23 | -1.49 ± 0.24
UCUAAGCAAUAUUACGAAGG | -2.53 ± 0.15 | -0.99 ± 0.16
UCUAAGCAAUAUUACGAAUU | -3.75 ± 0.31 | -2.66 ± 0.25
UCUAAGCAAUAUUACGACAU | -3.444 ± 0.025 | -2.23 ± 0.037
UCUAAGCAAUAUUACGAGAU | – | -0.699 ± 0.22
UCUAAGCAAUAUUACGAUGU | -0.365 ± 0.06 | -0.355 ± 0.074

Sequence | self-splicing fitness (ln) (30 °C) | self-splicing fitness (ln) (37 °C)
UCUAAGCAAUAUUACGCACU | -3.04 ± 0.24 | -1.52 ± 0.17
UCUAAGCAAUAUUACGCAUC | -2.99 ± 0.13 | -3.33 ± 0.23
UCUAAGCAAUAUUACGCUGC | -3.41 ± 0.19 | -2.84 ± 0.19
UCUAAGCAAUAUUACGCUUG | – | -2.59 ± 0.41
UCUAAGCAAUAUUACGGCAU | -3.46 ± 0.26 | -2.55 ± 0.21
UCUAAGCAAUAUUACGGGCG | -1.54 ± 0.11 | -0.979 ± 0.095
UCUAAGCAAUAUUACGGGGU | -2.9 ± 0.26 | -2.45 ± 0.21
UCUAAGCAAUAUUACGGUGC | -2.58 ± 0.12 | -2.85 ± 0.2
UCUAAGCAAUAUUACGGUUG | -2.82 ± 0.15 | -2.61 ± 0.18
UCUAAGCAAUAUUACGUAAC | -4.19 ± 0.24 | -2.94 ± 0.24
UCUAAGCAAUAUUACGUCUC | – | -3.38 ± 0.4
UCUAAGCAAUAUUACGUUGA | -1.71 ± 0.089 | -1.29 ± 0.086
UCUAAGCAAUAUUACGUUUU | -3.43 ± 0.19 | -3.06 ± 0.29
UCUCAGCAAUAUUACGAACC | -1.84 ± 0.18 | -1.69 ± 0.28
UCUCAGCAAUAUUACGACAC | -4.22 ± 0.26 | -3.33 ± 0.33
UCUCAGCAAUAUUACGAUGU | -1.07 ± 0.09 | -0.224 ± 0.12
UCUCAGCAAUAUUACGCAGU | -2.93 ± 0.16 | -1.96 ± 0.19
UCUCAGCAAUAUUACGCGAU | -4.5 ± 0.34 | -2.1 ± 0.36
UCUCAGCAAUAUUACGCGGA | -2.54 ± 0.37 | -2.46 ± 0.29
UCUCAGCAAUAUUACGGAGG | -4.93 ± 0.29 | -1.97 ± 0.17
UCUCAGCAAUAUUACGGCGU | -0.533 ± 0.087 | -0.636 ± 0.12

Sequence | self-splicing fitness (ln) (30 °C) | self-splicing fitness (ln) (37 °C)
UCUCAGCAAUAUUACGUAGG | -0.566 ± 0.053 | -0.133 ± 0.1
UCUCAGCAAUAUUACGUCAG | -3.54 ± 0.25 | -3.16 ± 0.27
UCUGAGCAAUAUUACGAAAU | -4.41 ± 0.46 | -2.24 ± 0.4
UCUGAGCAAUAUUACGAAGA | -1.67 ± 0.21 | -0.838 ± 0.27
UCUGAGCAAUAUUACGAUGU | -2.72 ± 0.15 | -0.718 ± 0.16
UCUGAGCAAUAUUACGAUUG | -2.97 ± 0.27 | -2.39 ± 0.33
UCUGAGCAAUAUUACGCACU | -4.18 ± 0.39 | -2.1 ± 0.28
UCUGAGCAAUAUUACGCGAC | – | -2.85 ± 0.48
UCUGAGCAAUAUUACGCGCG | – | -1.69 ± 0.46
UCUGAGCAAUAUUACGCGUC | – | -2.49 ± 0.48
UCUGAGCAAUAUUACGCUUA | -2.24 ± 0.26 | -2.38 ± 0.45
UCUGAGCAAUAUUACGGGCA | -3.41 ± 0.33 | -2.49 ± 0.16
UCUGAGCAAUAUUACGGGGG | -3.29 ± 0.36 | -2.49 ± 0.25
UCUGAGCAAUAUUACGGUAG | -3.93 ± 0.33 | -1.67 ± 0.18
UCUGAGCAAUAUUACGGUGG | -1.29 ± 0.084 | -0.277 ± 0.1
UCUGAGCAAUAUUACGUCCA | -2.33 ± 0.3 | -1.68 ± 0.38
UCUUAGCAAUAUUACGAACG | -0.815 ± 0.15 | -1 ± 0.2
UCUUAGCAAUAUUACGAGCU | -3.09 ± 0.34 | -1.01 ± 0.26
UCUUAGCAAUAUUACGAUCA | -1.3 ± 0.22 | -1.15 ± 0.23
UCUUAGCAAUAUUACGCAUU | -4.23 ± 0.19 | -2.47 ± 0.16
UCUUAGCAAUAUUACGCGCC | -3.51 ± 0.22 | -2.42 ± 0.22

Sequence | self-splicing fitness (ln) (30 °C) | self-splicing fitness (ln) (37 °C)
UCUUAGCAAUAUUACGCGCG | -3.05 ± 0.25 | -1.76 ± 0.17
UCUUAGCAAUAUUACGCGGA | – | -2.03 ± 0.41
UCUUAGCAAUAUUACGCGGG | -2.21 ± 0.22 | -2.5 ± 0.34
UCUUAGCAAUAUUACGCUAA | -2.71 ± 0.35 | –
UCUUAGCAAUAUUACGCUGU | -3.65 ± 0.37 | -1.45 ± 0.26
UCUUAGCAAUAUUACGGAUC | – | -1.69 ± 0.36
UCUUAGCAAUAUUACGGGUC | -3.28 ± 0.32 | -2.68 ± 0.41
UCUUAGCAAUAUUACGGUGC | -3.26 ± 0.33 | -1.9 ± 0.33
UCUUAGCAAUAUUACGUCAU | -1.86 ± 0.32 | –
UCUUAGCAAUAUUACGUGAU | -2.43 ± 0.28 | -2.01 ± 0.38
UCUUAGCAAUAUUACGUGUG | -2.13 ± 0.13 | -0.484 ± 0.099
UGAAAGCAAUAUUACGAACA | -0.213 ± 0.064 | 0.349 ± 0.08
UGAAAGCAAUAUUACGACAA | 0.219 ± 0.1 | -0.111 ± 0.13
UGAAAGCAAUAUUACGACGG | -0.788 ± 0.1 | -0.64 ± 0.1
UGAAAGCAAUAUUACGAGAG | -4.15 ± 0.33 | -1.61 ± 0.14
UGAAAGCAAUAUUACGAUCC | -0.303 ± 0.14 | 0.92 ± 0.18
UGAAAGCAAUAUUACGCCAA | -1.13 ± 0.15 | -0.806 ± 0.18
UGAAAGCAAUAUUACGCUGG | -2.59 ± 0.16 | -1.27 ± 0.19
